Test results: a protein production outcome set (Wang et al. 2014)

Assay: label from the status in PepcDB records
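Also: failed if final PepcDB status was selected cloned or expressed and not failed if soluble or beyond.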

Sequence	protein production
MNADYFFNQGLSDNLSREYQRTVVGGTKPTNRRIDAETYCKRGITFSRELKDYQGAIAFFNLAVEINPNYAQAYYHRANARYCLADFTAAIADYDQALQINPTFAEYYYCRGNAYLAQGDYDQAIANYISTIEFDPLLASNINEDIANAYYYRGLNNNDQGNYQEAIIDLQQALQWHPYFAAAYSIRGNIYYKLGEYRQAIADHERAVQLDPNLAEAYQNRGNAHYALGAYQKAIADYNRTLEINPHQVGAYYNRGLISFYLHEYQQAFADFNQVLNFNPNDAQAYYQRGLIYEAWQDYQSALADYNQSLQLNSELAVVYGVRANIYRHLGDYPSALADGNRLLELQPNFAAGYCDRATSRRCLGDYRGAIADYNQALQINPNIAEAYYGRAIAHEALRDFIGAIADYTQSIRISPDFAPAYCNRGNARRQLGDTKGAVTDYNQALTINPQLSEAYYNRGSLHYDQQNYRSAIADYTQALELQPESARYYSDRAHARYALQDYQGAVADYTQSIAINPGYAEDWYNRGRSHLLLGYLEEALADLNQALKFHPHWASAYLLRADILRNRGDYQAAIADFQKSADLYSQEGNTQNYQQILEIIAGLK	failed
MNAENNQTTTTHSKVISHVFCTGTAKLGSVGPPIGLVDIGVSEVAYIFRVSLPGIEKNQDKIKCEIQREGRVCIQGVIPEIAIPSDTGCLYRMQVQQLCPPGPFSITFNLPGQVDPRLFSPNFRSDGIFEVVVVKLGVRIPTS	failed
MNAIILAAGFGSRLMPLTKDQPKCMVEYKNKKIIDYEIEALKSAGINEIAVVGGYLNDVLKNYLNKYDIEHFFINSKYDKTNMVHTFFCAKDFMLKCIEEKQDLIISYADIVYFQDCVQKLINAKEELAIVVDKSWCKLWSKRFANPLEDAETLKMTNGYIIELGKKANAYDEIEAQYIGLFKFSYQFLSEVIAFYEMLDRDILYDNKNFENMYMTSFLQALIEKYNNAKAVEIDGNWCEIDFMSDLEVQIEKLEHHHHHH	failed
MNAIISPDYYYVLTVAGQSNAMAYGEGLPLPDREDAPHPRIKQLARFAHTHPGGPSCHFNDIIPLTHCPHDVQDMQSYHHPLATNHQTQYGTVGQALHIARKLLPFIPDNAGILIVPCCRGGSAFTAGSEGTYSERHGASHDACRWGTDTPLYQDLVSRTRAALVKNPQNKFLGVCWMQGEFDLMTSDYASHPQHFNHMVEAFRRDLKQYHSQLNNITDAPWFCGDTTWYWKENFPHAYEAIYGNYQNNILANIIFVDFQQQGARGLTNAPDEDPDDLSTGYYGSAYRSPENWTTAXRSSHFSSAARRGIISDRFVEAILQFWRER	not failed
MNAKPKDTVIANARIVLADRVIEQGWLALANGRVAEIGEGRAPAGAEDAGGDLIMPGLIELHTDHLEAHYVPRPKVFWNPVAAVVSYDGQLATSGITTVFDSLRVWREDGAEEVDGRAGVLAAAITTARDADLLRADHFLHLRCEIPMPSVVEEAKELIDRPDVKLMSLMDHTPGQRQFRDEGKLRDYYRGKNGGKTDAQLDELFAKRFEYQKAYAATNMREIVALAHQYNIPLASHDDTTEENVADAVRDRVSVAEFPTTLEAARGLHQAGIDILMGAPNVVRGGSHSGNIAAVDLAREGLLDILSSDYIPSSLLMAALQLPEHVPAISLPAAVRTVTKAPAEAVGLSDRGEIAVGKRADLIRVHIAGSVPVVRSVWREGGRVA	failed
MNALAVRWNDWPITRKSLAVVTLPLLLLAVALMAIYSVERQNIAAENDVRQTLEVLSDLYEAHALLAETAAGVRGYRLVRRDEFLTPYRDAEPRLQRVADRLSQRITDPSQAQRFARIKPLFAEKMQGWRRLLAPDLSREEEIRQLWDGKYKLDILRAELRELRNYETAQLQVRTAKAQGLRQRNLIITLSAAMLGGLGAVFAVAWFASALSGRLRTLAANADRLGEGLPLAPQPRAGDELGQVGQRLAQASELLAARAAEAQLARREAETANRAKTEFLSRSSHELRTPLNAILGYAQVLEMDLPEPGHRRHLRHILGAGRHLLGLITELLDIARIEADQLDLSPEPISVRAAVHEALGLIAPDADKHGIALQPASIDGPWTVRADAQRLRQVLLNLLSNAVKFNRTGGQVQVSAQADGEQVRITVADQGAGLTPAQIERLFTPFERLGAERSAVEGTGLGLALSKRLIEAMGGQIGVDSSSDGARFWISLPQGEHQHSEPTRPLVPPSNAGSGVCRLLSIEDNPSNQALIRTLTERRPQWQLLEAASLAQARELLQHGAPDLILLDLHLSDGNGEELLRELQAQPAMAAIPVVVISADATSATLARVGNQGVRAYLTKPLDVAEFFTVIDGLLA	not failed
MNALKGRDILALGFMTFALFVGAGNIIFPPIVGLQSGPHVWLAALGFLITAVGLPVITVIALAKVGGSVDALSHPIGRYAGGLLAAVCYLAVGPLFAIPRTATVSFEVGVVPLLGESGTALFVYSLAYFLLALAISLYPGRLLDTVGRFLAPLKILALAILGVAAFLWPAGPIGTAQPEYTQAAFSQGFVNGYLTMDTLAALVFGIVIVNAIRSRGVQSPRLITRYAIVAGLIAGVGLVLVYVSLFRLGAGSHAIAADASNGAAVLHAYVQHTFGSLGSSFLAGLIALACLVTAVGLTCACAEYFCQRLPLSYRSLVIILAGFSFIVSNLGLTKLIQVSIPVLTAIYPPCIVLVALSFCIGLWHSATRILAPVMLVSLAFGVLDALKAAGLGQDFPQWLLHLPLAEQGLAWLIPSVATLAACSLVDRLLGKPAQVAA	failed
MNANYVSKKPYIVTIACTKGGSAKSTNAANIGAFCADHGLRTLLIDTDTQPTLSSYYSLAKTAPGGIYEFLLQRDVEPSHIVSQTSIKNLDLIQSNDPSNNVSHMLRNAPDGSIRFSHLIKSINNYDVIVIDTRGTRDITVDMSVLAADILFCPILPQILSAKEFIRGTIGMYQDLQTFESFGFKLPPLKAIANGVDNTNDVKFVMQKLHTLFANTFDESKTLLDFSIPYHVAYREAVTYALPVYRHSAVEYPVMQQLCCLLLPQFKENFEKPMQRGLEHHHHHH	not failed
MNAPEIAAFKAERREPDKTDVDKLTGELDIRSEIWLIFDDLSTILEDQHFADKGVELLFSSLRYNTHNAKIIVTSRIVPIFENGESLIDVVEDEEKQNLKGLRKDYAVDYLVSNGLDKVEHEKLEELATGVDGHPLALKLLVELVKEFGVKDTLEDLSMYQESKDDTIKKARRLFDKLAGEEKELLESISVYREPVDMKGLREMFTLNTPKNAVKKLTDKSLLENDHNGSYWLHPLVQEFSYKDLKNKKEAHILAVKYCLSLPLPENPTKKGDVQPLIEAHYHTCAAKEYDAAAEIIFHFKLYEMLERWGNYNTLIELYEGVLPKSHFEDEPLLKNKEFHISILGNLGNVYTVLNEGKKAIQYHEKVVELNKGATNKFNEIISISNIGLFYFQQGMMKKAIECFEQTLKISNHDNQKGISGANLGNIGLVYLQIGEPKKAIQYFEKSLPLLKEANDKRREGANLGHMGMAYLQLNEAKEAVQCIQQSMYIAEEINDKRSIGNCFGNMGIIHSFFGEMKEALESYEQALSIAKEIDDRCNLGNWLGNKGRVYFDSGEIEKAIEFYKHALRIAKEINDVVREGLWIENLGQAFSYQGEFKKAIEYYEQALKISREIGNISAEGNLLENMGLAYYSLGEPRKAIEFLKESLAIRKAIEDPKIIGFCEQKLKELKGYDE	failed
MNAQLQYQIEQFFYRKSELCDAQDWDAYLQLFAVDSEFHLPQWDSEHVYTRDPKREMSLIYYANRSGLEDRVFRLRTGKAASTIPMPRTLHMVSNLRIAEGDNGLLRVRLNWHTLFYRLATSEEFYGHATYDLKPQGDSWLIQRKHVLLLNDTINSVLDFYHL	failed
MNARVHQPVHTAQHAPSYYAATLNRRIECPPLAGEEQADVCVVGGGFSGVNTALELAQRGFSVVLLEAHQIGWGASGRNGGQLIRGVGHDVEQFLPVIGADGVKALKLMGLEAVEIVRRRVEQYAIDCDLRWGYCDLANKPGDYQGFREDMEELQALGYRHEMRLVPAAEMRSVIGSDRYVGGLVDMGSGHLHPLNLVLGEAAAAQSLGVRLFERSTVMRIDYGTEVQVHTATGKVRAKTLVLGCNAYMNDLNPLLGGKVLPAGSYVIATEPLDEKLARQLLPQNMAVCDQRVALDYYRLSADNRLLFGGACHYSGRDPSDIAAYMRPKMLEVFPQLANVRIDYQWGGMIGIGANRLPQIGRLPGQPNVYFAQAYSGHGVNATHLAGQLLAEAIGGQQSDGFDLFAKVPHITFPGGKLLRSPLLALGMAWY	failed
MNAVTEGRKVLLEIADLKVHFEIKDGKQWFWQPPKTLKAVDGVTLRLYEGETLGVVGESGCGKSTFARAIIGLVKATDGHVAWLGKELLGMKPDEWRAVRSDIQMIFQDPLASLNPRMTIGEIIAEPLRTYHPKMSRQEVRERVKAMMLKVGLLPNLINRYPHEFSGGQCQRIGIARALILEPKLIICDEPVSALDVSIQAQVVNLLQQLQREMGLSLIFIAHDLAVVKHISDRVLVMYLGHAVELGTYDEVYHNPLHPYTRALMSAVPIPDPDLEKNKTIQLLEGELPSPINPPSGCVFRTRCPIAGPECAKTRPVLEGSFRHAVSCLKVDPL	failed
MNAYLSMNSDWRASMTQTVLVLGASGRFGRNAAEAFGRAGWTVRQFDRKRDDLDAAARGADVIVNAWNPPYPDWAATVPGLHARVIKTAQATGATVIIPGNVYVFGADTPAPWGPDSPHAATNPLGRIRIDMEAAYRASGVRTILLRAGDFLDTCASGNWFDQVMIKRLDKGRFTYPGNPDIPHAWAYLPDLARATVTLSERRETLPVFCDLTYPGYTMTGRQIATGLEQVTGRRVALKRMNWLPLHLARPVWSLAGSLLEMRYLWNTPHSLDGAAFAKVLPEFVQTPFEQALASAIPARLLAAQVHPDQAVAAGL	failed
MNAYYYLAIAICAEVIATVSMKAVKGLSTPLPLALIIVGYGVAFWMLTLVVRTVPVGVAYAVWAGMGIVMVSIAALFLYGQKLDIPAMLGMALIVLGVVVIQLFSKTAGH	failed
MNDFKNQWLRKRTFAIPASRLTGRLTTLKSDVPAADSLFWKLWNGSLDTAVQVLQTDYFKGIAAGTLDPNAYGSLMVQDGYYCFRGRDDYATAATCAQDETLREFFKAKAKSYDEYNETYHQTWHLREASGLIPGTDIKDYADYEAYVAGSLASPYMCVVMLPCEYLWPWIANFLDGYTPTNSLYRFWIEWNGGTPNGAYQMGNMLEQYRDKIDEDKAVEIFNTAMNYELKVFTSSTILTTIENGK	not failed
MNDFLFYLDIFGVIVFALSGALMAGRYQLDPFGVVVLASVTAVGGGTIRDVILQTPVFWVEKPYYLYVILATAILTIVLIRQPKRIPKRFLLIADALGLALFAVLGTQKALYLGAPIPVAVVLGTITGIAGGMIRDVLCNVIPMILREEIYALAAMLGGSLFIILHGLNWNDTNAMIVSISAALALRLAAIYWHVSLPAFHIVEKPKKEKGTTKIIEKK	failed
MNDFTFRCERPSLRLFAAAVVAVLLGLAPASSESVRKSGYAIGTESCGSGDLAFPRLQIDMKAGFCAGLVASEEDRLKFPRSIVQVPGRDLFVVADMGGWGHTDGRLLLLDPHAPPGQRFKELLTGLEYPFGLVIGPDRKLYASTAEAIFRFDPLADNPRGTVETIIRHMPGRRITLPDGTRLDESAHPLKQFVFDRNGRLFVNVGSHSDDCITPAPITKPCAAAEGASAMAAIWLFTPPSGGVFPALRPNDPDPPHTVYARGLRNSMALALHPNFPDAGYAFLQGENGRDLPDIFKPNEEINAIEQGRHYGWPYCYDLSTPSPEFRSVLQSGTYKSLCTANALYKPPFSLLPPHGAPLAMLYYHGAKFPELEGKLLVGLHGYRPTGSRVLAYDVDDHGFPRPSPAPVRYHVSCAADPTHSFQTDAGEVAAAPFEELIAGWHRVNGARPQGAPVGMTVAEDGAIWLVEDKNQTVIRIDRAAGDAPQPLPCDTRSQAMIDQLAAFIARDAQNSVRLTTLRKGLVEKHCLGCHSDFGLKAGQSEAEKDATVLRFMLSQDGWIYPGDPDSGRLRTRLRGLGAEKLMPPGGESLPKTEPGYARLLDTADLLVARMVPGTRIRIKAGPPQRRFFGKTNKECGEIPAAKVVVVTQRSAVDKPGFSRFFRPADPYLNGECTDDDGYYIRQEFLVPVQ	failed
MNDLLSSYLPVLIFIVVSAVIAGGLLVIPYIVAYRSPDPEKLSAYECGFNSFNDARMKFDIRFYLVSILFIIFDLEVAFLFPWAVSFGSIGMFGFWSMIIFLALLTVGFIYEWKKGALEWD	failed
